Assay results from US20240124606A1.
Values belong to the molecule of their own block, whether it stands above or below them.

What was measured:
mouse CD73 (mouse) = mouse CD73 (mouse) (UniProt Q61503); assay: flow cytometry, murine E0771 breast cancer cells, isotype control; PE against SSC-A
human CD73 (human) [1] = molecular target: T1, human CD73 (human) (UniProt P21589); assay: flow cytometry, human PC3 prostate cancer cells, isotype control plot above the E7 plot; CD73-PE against SSC-A
T1 sequence: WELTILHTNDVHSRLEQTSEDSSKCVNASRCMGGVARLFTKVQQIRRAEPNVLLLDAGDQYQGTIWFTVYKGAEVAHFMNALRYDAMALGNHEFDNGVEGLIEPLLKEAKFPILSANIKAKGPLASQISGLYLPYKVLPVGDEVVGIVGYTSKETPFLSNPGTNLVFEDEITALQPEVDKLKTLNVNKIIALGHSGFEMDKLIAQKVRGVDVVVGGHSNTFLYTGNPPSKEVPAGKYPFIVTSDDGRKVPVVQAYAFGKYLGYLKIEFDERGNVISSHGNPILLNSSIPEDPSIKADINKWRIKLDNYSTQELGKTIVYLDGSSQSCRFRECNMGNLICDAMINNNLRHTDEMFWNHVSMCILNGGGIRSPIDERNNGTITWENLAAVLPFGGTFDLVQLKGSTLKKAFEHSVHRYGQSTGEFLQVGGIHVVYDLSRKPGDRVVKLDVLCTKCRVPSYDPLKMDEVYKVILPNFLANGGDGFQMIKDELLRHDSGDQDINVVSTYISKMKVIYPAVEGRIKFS

human CD73 (human) [2] = molecular target: T1, human CD73 (human); assay: flow cytometry, human PC3 prostate cancer cells, isotype control plot above the 2C5 plot (its gate is drawn larger than in the other plots); CD73-PE against SSC-A
human CD73 (human) [3] = molecular target: T1, human CD73 (human); assay: flow cytometry, human PC3 prostate cancer cells, 10 ug/ml antibody, PE anti-mIgG secondary antibody; CD73-PE against SSC-A

Chain of UniProt Q61503 (Q61503 29-551 limits assumed): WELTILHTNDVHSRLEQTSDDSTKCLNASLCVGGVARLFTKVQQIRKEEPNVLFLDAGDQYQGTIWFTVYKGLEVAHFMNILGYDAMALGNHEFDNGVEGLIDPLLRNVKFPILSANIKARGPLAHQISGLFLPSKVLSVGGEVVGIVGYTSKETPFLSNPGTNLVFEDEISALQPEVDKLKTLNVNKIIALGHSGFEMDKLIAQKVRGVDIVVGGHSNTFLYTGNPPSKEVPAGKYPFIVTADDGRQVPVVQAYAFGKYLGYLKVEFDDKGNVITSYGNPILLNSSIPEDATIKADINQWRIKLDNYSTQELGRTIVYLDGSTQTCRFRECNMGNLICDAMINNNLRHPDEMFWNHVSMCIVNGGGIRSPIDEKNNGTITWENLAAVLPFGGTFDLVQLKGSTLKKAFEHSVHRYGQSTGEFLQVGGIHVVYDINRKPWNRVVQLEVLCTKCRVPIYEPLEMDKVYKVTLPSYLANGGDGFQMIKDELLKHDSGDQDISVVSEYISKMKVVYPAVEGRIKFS

percent of cells in the CD73 gate (mouse CD73 (mouse)): 0.8
percent of cells in the CD73-PE gate (human CD73 (human) [1]): 1.02
percent of cells in the CD73-PE gate (human CD73 (human) [2]): 2.84
Molecule: Isotype (antibody)

percent of cells in the CD73-PE gate (human CD73 (human) [3]): 99.7
B1: 2C5 (a commercially-available anti-CD73 mAb, Astrazeneca) (antibody, from another filing, V domains shown)
VH: EVQLLESGGGLVQPGGSLRLSCAASGFTFSSYAMSWVRQAPGKGLEWVSAISGSGGSTYYADSVKRRFTISRDNSKNTLYLQMNSLRAEDTAVYYCARDKGYYWYMDVWGQGTMVTVSS
VL: QSVLTQPPSVSVSPGQTASITCSGDKVGDKYASWYQQKPGQSPVLVIYEDTKRLSGIPERFSGSNSGNTATLTISGTQAMDEADYYCQAWDTSFWVFGGGTKLTVL
